Results as given in the nanobody polyreactivity screen of Harvey et al. (2022).

test: yeast display, Sf9 membrane polyspecificity reagent, FACS + sequencing; frameworks hold sequencing errors
Summary of the method: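 After 36–48 hours of galactose induction, yeast (Saccharomyces cerevisiae BJ5465) displaying a synthetic nanobody library were stained at 4 °C for 1 hour with 10% biotinylated, detergent-solubilized Sf9 membrane reagent. Streptavidin microbeads enriched the stained cells before FACS sorting into low and high (top ~1%) gates on anti-HA and streptavidin fluorescence. Each clone's polyreactivity label reflects its gate of origin.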

| Sequence | polyreactivity (PSR sort gate) |
| --- | --- |
| KVQLVESGGSLVQAGGSLRLSSAASGRIITGYAMGWYRQAPGKEWELVAAITGSCVSTYYADSVKGRFTISRDNSKNTVYLQMNSLKPEDTAVYYCAARRYYGYVHWGQGTQVTVSS | high polyreactivity |
| QVQLVESGGGLVQAGGSLRLSCAASGSTFGYNAMGWSRPAPGKERELVAAITWSGGSTYYADSVKGRFTISRDNAKNTVYLQMNSLKPEDTAVYYCAADDWYNSKWHYYYWGQGTQVTVSS | low polyreactivity |
| QVQLVESGGGLVQEGGSLLISCAASGSIVESYAMGWYRQAPGKEREWVAAITIRGASPYYADSVKGRFTISRDNAKNTVYLQMNSLKPEDTAVYYCNARWPGIGPIYDYWGQGTQVTVSS | low polyreactivity |
| QVQLVESGGGVVQAGGSLRLSCAASGSIFTYYAMGWYRQAPGKERELVAAISYGGGSTNYADSVKGRFTISRDNAKYTVYLQMNSLKPEDTAVYYCNRVLGVNYGYWGQGTQVTVSS | high polyreactivity |
| QVQLVESGGGLVQAGGSLRLSCAASGSTSYTNAMGWYRQAPGKERELVAGITRSGDSTYYADSVKGRFTISRDNAKNTVYLQMNSLKPEDTAVYYCAAEYSGQYYSPVSYLYDYWGQGTQVTVSS | high polyreactivity |
| QVQLVESGGGLVQAGGSLRLSCAASGLIFYRYAMGWYRQAPGKERELVAAISSSGVSTYYADSVKGRFTISRDNAKNTVYLQMNSLIPEDTAVYYCAADVGSRSYSYDYWGQGTQVTVSS | low polyreactivity |
| QVQLVESGGGLVQAGGSLRLSCAASGFIFGSYAMGWYRQAPGKERELVAAISTGGGSTYYADSVKGRFTISRDNAKNTVYLQMNSLKPEDTAVYYCATDYRVTVWHPYQWYIYGYWGQGTQVTVSS | low polyreactivity |
| QVQLVESGGGLVQAGGRLRLSCAASGRIFTYNAMGWYRQAPGKEREFVAAISSGGSTTYADSVKGRFTISRDNAKNTVYLQMNSRKPEDTAVYYCAARGWRFAIIEYEYWGQGTQVTVSS | low polyreactivity |
| QVQLVESGGGLVQAGGSLRLSCAASGSTFAYYAMGWYRQAPGKEREMVAAISSGGSTYYADSVKGRFTISRDNAKNTVYLQMNSLKPEDTAVYYCNAEVPGHYFDGWYFYDFDYWGQGTQVTVSS | low polyreactivity |
| QVQLVESGGGLVQAGGSLSLSCAASGSIFRINAMGWYRQATGKERELVARISWRAGNTYYADSVKGRFTISRDNAKNTVYLQMNSLKPEDTAVYYCNADYYVTGLYGPGYDYWGQGTKVTVSS | low polyreactivity |
| QVQLVESGGGLVQAGGSLRLSCAASGRTLVYYAMGWYRQAPGKERELVAAISWSGSRTYYADSVKGRFTISRDNAKNTVYLQMNSLKPEDTAVYYCATLTFRTNGTMDYWGQGTQVTVSS | high polyreactivity |
| QVQLVESGGGLVQAGGSLRLSCAASGRIISYYAMGWYRQAPGKERELVAAISRSGGSTYYADSVKGRFTISRDNAKNTVYLQMNSLKPEDTAVYYCAKYFRPVQGDKWGFKYWGQGTQVTVSS | high polyreactivity |
| QVQLVESGGGLVQAGGSLRLICAASGFTFPSYAMGWYRQAPGKEREFVAGITKGGGNTYYADSVKGRFTISRDNAKNTVYLQMNSLIPEDTAVYYCAADRSSFYWSHGTVYGYDYWGQGTQVTVSS | low polyreactivity |
| QVQLEESGGGLVQAGGSLRLSCADSGRTFRFYTIGWYRQAPGKERELVASISWGGTSTYYADSVKGRFTISRDNANNTVYLQMISLKPEDTAVYSCAAPRWVEGFRFDYWGQGTQVTVSS | high polyreactivity |
| QVQLVESGGGLVQAGGSLRLSCAASGLIFYAYAMGWYRQAPGKERELVAGIWIDDSTYYADSVKGRFTISRDNAKNTVYLQMNSLKPEDTAVYYCNKRVRSYYLYRGDYWGQGTQVTVSS | low polyreactivity |
| QVQLVDSGGGLVQAGGSLRLSCAASGSTFYLYAMGWYRQAPGKERELVAVITTDGSTTYADSVKGRFTISRDNATNTVYLEMNSLKPEDTAVYFCAAYGGNGQYYSQYDYWGQGTQVTVSS | low polyreactivity |
| QVQLVESGGGLVQAGGSLRLSCAASGSTFPVYAMGGYRQAPGKERELVAAISLIGGSTYYADSVKGRFTISRDTAKNTVYLQMNSLKPEDTAVYYCNTAVISSPPAIDVLEMDYWGQGTQVTVSS | low polyreactivity |
| QVQLVESGGGLVQAGGSLRLSCAASGSIFYPYAMGWYRQAPGKERQLVAAISYSGGSTYYADSVKGRFTISRDNAKNTVYLQMNSLKPEDTAVYYCAADVTAGDGRNDYWGIGTQVTVSS | low polyreactivity |
| QVQLVESGGRLVQAGGSLRLSCAASGSIFRYYALGWYRQAPGKERELVAAISWSGGSTYYADSVKGRFTISRDNAKNTVYLQMNSLKPEDTAVYYCATTPGVWSTGGTNGFGYWGQGNQVTVSS | high polyreactivity |
| QVQLVESGGGLVHAGGSLRLSCAASGIISGWNGMGWYRQAPGKERELVASIDKNGSTYYADSVKGRCTISRDNAKNTVYLQMISLKPEDTAVYYCASDVRYRGNREDYWGQGTQVNVSS | low polyreactivity |

| Sequence | polyreactivity (PSR sort gate) |
| --- | --- |
| QVQLVESGGGLVQAGGSLRLSCAASGSIFSRYAMGWYRQAPGKERELVAAISSSGSSTYYADSVKGRFTISRDNAKNTVYLQMNSLKPEDTAVYYCAATGYPRFGYWGQGTQVTVSS | high polyreactivity |
| QVQLVESGGGLVQAGGSLRLSCAASGRTFASYAMGWYRQAPGKERELVAGITSGGNTYYADSVKGRFTISRDNAKNTVYLQMNSLKPEDTAVYYCNAVRRVSSAGEFDYWGQGTQVTVSS | high polyreactivity |
| QVQLVESGGGLVQAGGSLRLSCAASGRTSRIYAMGWYRPAPGKRELVAAISGSGSRTYYADSVKGRFTISRDNAKNTVYIQMNSLKPEDTAVYYCNGRYWYRDHPPEFDYWGQGTQVTVSS | high polyreactivity |
| QVQLVESGGGLVQAGGSLRLSCAASGSTFKAYAMGWYRQAPGKERELVAAITKSGGRTYYADSVKGRFTISRDNAKNTVYLQMNSLKPEDTAVYYCAAVFRPDSSAYRYYYWGQGTQVTVSS | high polyreactivity |
| QVQLVESGGGLVQAGGSLRLSCAASGRIFDVYEMGWYRQAPGKERELVAAMTWSGTSTYYADSVKGRFTISRDNAKNTVYLQMNSLKPEDTAVYYCNALSYGRYLNYRGGMDYWGQGTQVTVSS | high polyreactivity |
| QVQHVESAGGLVQAGGSLRLSCSASGSIFYFYAMGWSRQAPGKERELVATITSSGSTNYADSVKGRFTISRDNAKNTVYLQMNSLKPEDTAVYYCNVDVISLKPYVSSYFAIKYDYWGQGTQVTVSS | low polyreactivity |
| QVQLVESGGGLVQAGGSLRLSCAASGSTFGKNAMGWYRPAPGKERELVAAITSSGGRTYYADSVKGRFTISRDNAKNTVYLQMNSLKPEDTAVYYCNAVTRRRSLGPWPVEYDYWGQGTQVTVSS | high polyreactivity |
| QVQLVESGGGLLQAGGSLRLSSAASGFIFTKYNMGWYRQAPGKERELVDAIDTGGNTYADSVKGRFTISRDNAKNTVYLQMNSLKPEDTAVYYCSVDGGEFSSYGYWGQGTQVTVSS | low polyreactivity |
| QVQLVESGGGLVQAGGSLRLSCAAYGSIFRKYVMGWYRQAHGKERELVAVISSGTGTYYADSVKGRFTISRDNAKNTVYLQMNSLNPEDTAVYYCAARVGRYGYSQYYYWGHGTQVTVSS | high polyreactivity |
| QVQLVESGGGLVQAGGSLRLSCAASGFTLTPYAMGWYRQAPGKERELVAAITYTGGSTYYADSVKGRFTISRDNAKNTVYLQMNSLKPEDTAVYYCAAEFLSVPYDYCYWGQGTQVTVSS | high polyreactivity |
| QVQLVESGGGLVQAGGSLRLSCAASGRIFRWNAMGWYRQAPGKERELVAAISASGGRTYYADSVKGRFTISRDNAKNTVYLQMISLKPEDTAVYYCAAGPVYYYVPIGYDYWGQGTQVTVSS | high polyreactivity |
| QVQLVESGGGLVQAGGSLRLSCAASGRTSRFYAMGWYRQAPGKERELVARITTRGGSTYYADSVKGRFTISRDNAKNTVYLQRNSLKPEDTAVYYCNTAFWYSRSMDYWGQGTQVTVSS | high polyreactivity |
| QVQLVESGGGLVQAGGSLRLSCAASGITFYFYAMGWYRQAPGKERELVASITSSGSTDYADSVKGRFTISRDNAKNTVYLQMNSLKPEDTAVYYCAADVQNHFYSFGDERGFPFDYWGQGTQVTVSS | low polyreactivity |
| QVQLVESGGGLVQAGGSLRLSCAASGIPRNTMGWYRQAPGKERELVASISTSGGSTYYADSVKGRFTLSRDNANNTVYLQMNSLKPEDTAVYYCAKKGYASRYFIYDYWGQGTQVTVSS | low polyreactivity |
| QVQLVDSGGGLVDAGGRLRLSCAASGRTFYAYPMGGYRQAPRTERELVAAITKRDGITFYADSVKGRFTISRDNAKNTVYLQMKSLKPEDTAVDYCDATGYVGGIYGHYPRGYWGQCTQVTVSS | high polyreactivity |
| QVQLVESGGGLVQAGGSLRLSCAASGSTFYLYGMGWYRQAPGKERELVAAITYSGGSTYYADSVKGRFTISRDNAKNTVYLQMNSLKPEDTAVYYCNARSQWRSSRFYYWGQGTQVTVSS | high polyreactivity |
| QVQLEDSGGGLVQAGGSLRLSCAASGSTFNQYAMGWYRQATGKERELVAAITTSGARTYYADSVKGRFTISRDNAKNTVYLQMNSLKPEDTAVYYCNAGYFSYRYRYGYDYWGLGTQVTVSS | high polyreactivity |
| QVQLVESGGGLVQAGGSLRLSCAASGFIFVKYAMGWYRQAPGKERELVAAITNGGSTYYADSVKGRFTISRDNAKNTVYLQMNSLKPEDTAVYYCAAQYHDWWRRLLYRSFLPFDYWGQGTQVTVSS | low polyreactivity |
| QVQLVESGGGLVQAGGSLRLSCAASGSSFTGNAMGWYRQAPGKERELVASINGSSGSTYYADSVKGRFTISRDNAKNTVYLEMNSLKPEDTAVYYCNADTYYVEYTAFDYWGQGTQVTVSS | low polyreactivity |
| QVQLVESGGGLVQAGGSLRLSCAASGRIFRYYDMGWYRQAPGKEREFVAAITRSGAITYYADSVKGRFTISRDNAKNTVYLQMNSLKPEDTAVYYCAARYWAKFGYWGQGTQVTVSS | low polyreactivity |
